Measurements as given in patent US20230303994.
Numbering of substitutions follows the chain as printed. Names may count otherwise.

B1: porcine trypsin variant S172A (SEQ ID NO: 2) (protein)
chain: IVGGYTCAANSIPYQVSLNSGSHFCGGSLINSQWVVSAAHCYKSRIQVRLGEHNIDVLEGNEQFINAAKIITHPNFNGNTLDNDIMLIKLSSPATLNSRVATVSLPRSCAAAGTECLISGWGNTKSSGSSYPSLLQCLKAPVLSDSSCKSSYPGQITGNMICVGFLEGGKDACQGDSGGPVVCNGQLQGIVSWGYGCAQKNKPGVYTKVCNYVNWIQQTIAAN
B2: trypsin variant SEQ ID NO: 115 (protein)
chain: B1 chain with F24R, S44P, D56H, R99N, R107T, K125S, Y131M, W193S
B3: trypsin variant SEQ ID NO: 4 (protein)
chain: B1 chain with F24R, R99A, W193S
B4: trypsin variant SEQ ID NO: 116 (protein)
chain: B1 chain with F24R, S44P, D56H, R99N, R107T, K125S, Y131M, K170A, W193S
B5: trypsin variant SEQ ID NO: 14 (protein)
chain: B1 chain with F24R, R99H, W193S
B6: trypsin variant SEQ ID NO: 119 (protein)
chain: B1 chain with F24R, S44P, D56H, R99A, R107T, K125A, Y131M, W193S
B7: trypsin variant SEQ ID NO: 111 (protein)
chain: B1 chain with F24R, S44P, D56H, G78P, R99H, R107T, K125S, K170A, W193S
B8: trypsin variant SEQ ID NO: 41 (protein)
chain: B1 chain with F24R, Y131H, W193S
B9: trypsin variant SEQ ID NO: 36 (protein)
chain: B1 chain with F24R, Y131M, W193S
B10: trypsin variant SEQ ID NO: 113 (protein)
chain: B1 chain with F24R, S44P, D56H, R99A, R107T, K125A, K170A, W193S
B11: trypsin variant SEQ ID NO: 118 (protein)
chain: B1 chain with F24R, S44P, D56H, R99H, R107T, K125A, Y131M, K170A, W193S
B12: trypsin variant SEQ ID NO: 117 (protein)
chain: B1 chain with F24R, S44P, D56H, R99N, R107T, K125A, Y131M, W193S
B13: trypsin variant SEQ ID NO: 18 (protein)
chain: B1 chain with F24R, K125S, W193S
B14: trypsin variant SEQ ID NO: 19 (protein)
chain: B1 chain with F24R, K125C, W193S
B15: trypsin variant SEQ ID NO: 25 (protein)
chain: B1 chain with F24R, K170A, W193S
B16: trypsin variant SEQ ID NO: 24 (protein)
chain: B1 chain with F24R, K170Y, W193S

molecular target: pre-pro-insulin glargine

Protein	Purity Insulin Glargine	Yield	desArg	desThr
B1	53.6 area %	65%	19.1 area %	5.2 area %
B2	83.5 area %	> 90%	0.8 area %	0.6 area %
B3	86.4 area %	> 90%	< 0.5 area %	2.9 area %
B4	82.7 area %	> 90%	0.5 area %	0.6 area %
B5	84.5 area %	> 90%	< 0.5 area %	2.4 area %
B6	85.2 area %	> 90%	0.6 area %	1 area %
B7	85.9 area %	> 90%	0.7 area %	2.6 area %
B8	82.8 area %	> 90%	< 0.5 area %	1.9 area %
B9	87.6 area %	> 90%	< 0.5 area %	1.5 area %
B10	86.1 area %	> 90%	0.5 area %	1.7 area %
B11	87.6 area %	> 90%	0.6 area %	1 area %
B12	85 area %	> 90%	0.6 area %	0.8 area %
B13	82.6 area %	> 80%	< 0.5 area %	1.9 area %
B14	81 area %	> 80%	< 0.5 area %	3.3 area %
B15	80.4 area %	> 80%	< 0.5 area %	2.8 area %
B16	82.3 area %	> 80%	< 0.5 area %	2.8 area %

molecular target: insulin glargine, P01308
Sequence (P01308 whole entry, looked up): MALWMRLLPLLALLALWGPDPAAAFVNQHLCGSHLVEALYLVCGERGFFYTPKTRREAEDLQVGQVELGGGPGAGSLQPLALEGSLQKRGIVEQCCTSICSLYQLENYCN

Protein	exopeptidase activity
B1	the concentration of insulin glargine is decreased over time

molecular target: pre-pro-human insulin

Protein	Activity PPI cleavage	Selectivity
B1	yes	62.1%
B2	yes	>90%
B3	yes	>90%
B4	yes	>90%
B5	yes	>90%
B6	yes	>90%
B7	yes	>80%
B8	yes	>90%
B9	yes	>90%
B10	yes	>90%
B11	yes	>90%
B12	yes	>90%
B13	yes	>90%
B14	yes	>90%
B15	yes	>90%
B16	yes	>90%
